In the supplement of paper PMC10567573:

B1: LRRC45 (parent)
chain: DLSAANEKNLLLQNQVDELERKFR
B2: MLL5 (parent)
chain: EQIAERKRKMVSWEASSLGLVTAA

Variants of: B1
Experiment: protein stability index of a GFP-peptide fusion (GPS, HEK-293T) (PSI 1-6); higher = more stable
Conditions: c terminus: a fixed tail appended
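Also: lentivirally expressed fusions sorted by FACS into six bins by GFP to DsRed ratio, PSI derived from sequencing read proportions per bin multiplied by bin number.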

Protein stability index of substitutions, site by site:
N6: V 4.38 | I 3.27 | G 4.82 | M 3.97 | H 4.27 | E 4.69 | T 4.4 | K 4.51
D17: T 2.96 | I 3.01 | K 3.55 | A 3.58 | G 3.46 | S 3.46 | N 3.52 | E 4.39 | F 2.81 | R 2.97 | P 3.57
N14: Y 3.65 | M 3.54 | P 3.69 | W 3.63 | L 3.43 | V 3.62 | I 3.05 | H 3.62
V16: R 4.17 | Q 4.29 | G 3.69 | N 4.24 | E 4.72 | I 4 | A 4.48 | H 4.08 | P 4.09
R21: F 3.57 | Y 4.14 | S 4.23 | G 4.49 | M 3.97 | N 4.47 | A 4.09
F23: D 5 | A 5.13 | Y 3.85 | R 3.86 | N 4.78
Q15: G 4.36 | S 4.42 | T 3.35 | C 3.84 | I 3.38 | W 3.27 | E 4.7 | K 4.06 | N 3.75
E20: R 3.06 | D 4.25 | L 3.23 | C 3.73 | N 3.27 | Y 2.86 | W 2.91 | T 3.43
R24: P 4.59 | A 4.69 | Q 4.91 | M 3.96 | F 3.62
K8: N 4 | Q 4.12 | C 3.83 | T 4.31 | D 4.21 | E 4.56 | P 4.35
K22: N 4.18 | T 3.71 | G 3.62 | V 3.27 | C 3.47 | L 3.49
L19: G 4.41 | C 4.16 | N 4.27 | K 3.92 | T 4.34 | A 4.58 | E 4.57 | M 4.03 | P 3.78 | D 5.16
A4: K 4.36 | Q 3.82 | N 3.29 | V 3.77 | T 4.06
E7: F 2.88 | K 3.7 | P 4.31 | G 3.43 | H 3.94
N9: I 4.21 | T 4.59 | R 4.02 | V 4.12 | Q 4.57
D1: Q 4.21 | F 4.09 | N 4.4 | A 4.6 | R 4.41 | S 4.25
Q13: I 3.6 | L 3.96 | W 3.3 | D 4.63 | Y 3.42 | R 3.74 | V 4.53 | H 3.66 | K 4.32
L11: C 4.15 | R 4.04 | S 4.31 | F 4.13 | I 4.46 | D 4.94 | P 4.32 | N 4.5 | K 4.57 | V 3.96 | Q 4.31 | Y 4.2
A5: S 4.39 | Y 3.87 | L 3.83 | E 4.01 | K 4.33 | P 4
E18: F 3.16 | G 3.67 | K 3.94 | V 3.44 | T 3.7
L12: I 4.25 | Q 4.19 | A 4.37 | D 4.46 | K 3.77 | V 4.36 | C 4.31 | G 4.03
S3: K 4.15 | E 4.86 | A 4.44 | D 4.64 | G 4.54
L2: D 5.31 | K 5.06 | Y 4.85 | M 4.19 | W 4.27 | I 3.27 | C 4.76 | T 4.92 | S 4.86 | R 4.86 | V 3.89
L10: P 4.75 | S 4.45 | R 4.06 | E 4.94 | H 4.62 | A 4.18 | V 4.39

Variants of: B2
Experiment: as above
Conditions: c terminus: a fixed tail appended

Protein stability index of substitutions, site by site:
L20: K 3.9 | T 3.87 | V 3.37 | N 3.62 | P 3.72 | Q 3.47 | D 3.82 | S 4.99 | H 3.54 | Y 2.68 | I 3.77 | W 2.42 | E 4.3 | F 3.35 | C 3.71
A23: S 2.68 | T 2.31 | R 2.63 | Y 2.28 | K 3.27 | M 3.11 | P 3.41 | N 2.31 | W 2.08 | Q 2.31 | D 3.98 | F 1.58 | I 3.23 | E 3.96 | C 3.12
V21: W 2.86 | T 3.62 | C 3.05 | P 2.44 | D 3.55 | L 2.76 | R 2.96 | G 3.4 | I 3.15 | S 3.68 | E 2.73 | A 3.23 | N 3.22 | Q 3.22 | M 3.32 | H 2.82 | F 2.38
A24: Q 3.39 | H 3.17 | S 3.57 | V 3.04 | F 2.29 | N 3.25 | Y 2.1 | E 4.38 | C 2.39 | K 2.4 | D 4.11
S16: H 1.57 | E 3.02 | W 1.77 | P 3 | R 3.57 | D 2.86 | C 2.59 | Q 3.05 | V 2.29 | K 3.23 | I 1.94 | A 3.11 | L 1.99 | T 2.77
S17: T 2.98 | V 2.31 | C 1.44 | L 3.15 | K 3.54 | E 3.41 | F 1.37 | N 2.71 | A 2.77 | H 2.7 | W 1.76 | M 1.54 | Q 3.08 | P 3.46 | G 3.12 | Y 2.43 | D 2.98
G19: D 3.32 | E 3.71 | K 3.09 | N 2.95 | A 2.1 | T 3.25 | H 2.68 | M 2.65 | V 2.9 | Y 1.84 | S 3.84 | R 3.16 | Q 3.49 | C 2.38 | W 1.74
L18: R 3.01 | F 2.43 | Q 3.72 | H 2.97 | D 4.24 | C 2.97 | P 3.4 | G 3.48 | I 1.91 | Y 2.77 | N 3.52 | S 1.92 | V 2.53 | M 3.16 | T 3.5 | K 3.86 | A 3.31 | E 4.66
E14: Y 2.52 | S 2.47 | T 3 | V 1.97
T22: I 1.62 | D 3.63 | W 1.79 | Y 2.57 | A 3.33 | N 3.21 | M 2.63 | Q 3.73 | F 1.83 | H 2.85 | V 3.58 | L 2.18 | E 3.63 | K 2.54 | S 2.92
A15: E 3 | P 3.77 | K 2.74 | W 1.84 | R 3.98 | M 2.64 | I 2.56 | Q 2.93 | V 2.56 | S 2.94 | C 2.28 | L 2.32 | N 2.67 | Y 2.26 | H 3 | F 2.08
